# Test results as given in patent US20130177528A1, “COMPOSITIONS AND METHODS FOR INHIBITING VIRAL INFECTION” (WESTERN UNIVERSITY OF HEALTH SCIENCES, priority 2011, published 2013).
# B1: contortrostatin (protein)
# chain: DAPANPCCDAATCKLTTGSQCADGLCCDQCKFMKEGTVCRRARGDDLDDYCNGISAGCPRNPFHA
# Assays:
# [1] = test system: HSV-1 glycoproteins (gB, gD, gH-gL) mediated cell-to-cell fusion; assay: Virus-free HSV-1 glycoprotein-mediated cell-to-cell fusion assay (Example 12); assay type: cell-based, human
# Description: FIG. 15A-B show the inhibition of HSV-1 glycoprotein-induced cell-to-cell fusion by CN and proposed model for CN-based anti-HSV-1 activity during cell entry. (A) In this experiment the naturally susceptible target human corneal fibroblasts (CF) cells expressing gD-receptors and luciferase gene were pre-incubated with 1 μM contortrostatin (CN) and mixed in 1:1 ratio with the effector Chinese hamster ovary (CHO-K1) cells expressing herpes simplex virus type-1 (HSV-1) glycoproteins (gB, gD, gH-gL) along with T7 plasmid (white bar indicated as treated [Tr]). In parallel, CN-untreated CF cells were similarly mixed with effector cells as positive control (+; black bar). The target CF cells co-cultured with effector cells devoid of HSV-1 glycoproteins were considered as negative control (−; grey bar). Membrane fusion as a means of viral spread was detected by monitoring luciferase activity. Relative luciferase units (RLUs) were determined using a Sirius luminometer (Berthoid Detection Systems, Titertek Instruments, Inc., Huntsville, Ala., USA). Error bars represent SD. (B) A cartoon illustrates the CN-mediated HSV-1 inhibition that might affect three major steps (a-c) that are involved during HSV-1 entry. (a) CN (presented by hatching) binding to host cell surface integrin (presented by α and β subunits) may affect HSV -1 glycoprotein H (gH) binding to integrins. […]
# [2] = test system: HSV-1 (KOS) gL86; assay: HSV-1 entry into gD receptor expressing CHO-K1 cells, cells pre-incubated with CN (Example 8); assay type: cell-based, herpes simplex virus type-1; conditions: for HSV-1 viral entry (β-galactosidase activity, OD 410): 25 pfu/cell, 6 h
# Description: In this experiment, Chinese hamster ovary (CHO-K1) cells expressing glycoprotein D (gD) receptors: (A) 3-OST-3, (B) herpesvirus entry mediator and (C) nectin-1 were pre-incubated with contortrostatin (CN) at indicated concentrations or mock-treated (positive control [+]) with phosphate saline buffer for 90 min at room temperature. This treatment was followed by infection with β-galactosidase-expressing recombinant virus herpes simplex virus type-1 (HSV-1; KOS) gL86 (25 pfu/cell). Uninfected cells were kept as negative control (−). After 6 h, the cells were washed, permeabilized and incubated with o-nitro-phenyl-β-o-galactopyranoside (ONPG) substrated (3.0 mg/ml) for quantitation of β-galactosidase activity expressed from the input viral genome. The enzymatic activity was measured at an optical density of 410 nm (OD 410). Error bars represent SD. a=significant difference from controls and/or treatments (P<0.05, t-test).
# Viral Entry Assay. Viral entry assays were based on quantitation of β-galactosidase expressed from the viral genome in which β-galactosidase expression is inducible by HSV infection. Cells were transiently transfected in 6-well tissue culture dishes, using Lipofectamine 2000 (In vitrogen Corp) with plasmids expressing HSV-1 entry receptors (necitn-1, HVEM and 3-OST-3 expression plasmids) at 1.5 μg per well in 1 ml. At 24 hr post-transfection, cells were re-plated in 96-well tissue culture dishes (2×10^4 cells per well) at least 16 hr prior to infection. Cells were washed and exposed to serially dilute pre-incubated virus with […] or with 1×PBS at two fold dilutions for 2 hr at room temperature. In a parallel experiment the cells were also pre-incubated with NBE for 2 hr at room temperature before infection with virus. Later the cells were washed with 1×PBS and allowed 6 hr at 37° C. before solubilization in 100 μl of PBS containing 0.5% NP-40 and the -galactosidase substrate, o-nitro-phenyl-D-galactopyranoside (ONPG; ImmunoPure, PIERCE, Rockford, Ill., 3 mg/ml). The enzymatic activity was monitored at 410 nm by spectrophotometry at several time points after the addition of ONPG in order to define the interval over which the generation of the product was linear with time. Microscopy was performed using 20×objective of the microscope (Nikon). The slide book version 3.0 was used for images. All experiments were repeated a minimum of three times.
# To determine the effect of CN on HSV-1 entry, we first tested the ability of HSV-1 in the presence and absence of CN to infect CHO-KI cells expressing gD receptors. HSV-1 entry into cells was determined by using β-galactosidase expressing HSV-1 reporter virus (gL86).
# [3] = test system: HSV-1 (KOS) gL86; assay: HSV-1 infection of HeLa, Vero and 293T cells, virus pre-incubated (Example 3); assay type: cell-based, herpes simplex virus type-1; conditions: virus 30 pfu/cell pre-incubated 90 min, 6 hr
# Description: CN blocks herpes simplex virus type-1 (HSV-1) infection of natural target cells. HeLa, Vero and 293T cells were each grown to 100% confluency in 96-well plates. The β-galactosidase-expressing recombinant virus HSV-1 (KOS) HSV-1 gL86 (30 pfu/cell) was pre-incubated with CN at the concentration indicated in FIG. 7 or mock treated with 1 X phosphate saline buffer for 90 min at room temperature. After 6 hr, the cells were washed, permeabilized and incubated with ONPG substrate (3.0 mg/ml). The β-gal enzymatic activity was measured at an optical density of 410 nm (OD 410). Each value shown in FIG. 7 is the mean of three or more determinations (±SD). Mock treated HSV-1 with PBS was used as a control. HSV-1 infection of HeLa (panel A) and Vero and 293T cells (panel B) was blocked by CN.
molecule,measurement,setting,value
B1,polykaryocyte formation,"[1]; CN-treated target cells co-cultured with effector cells, data not shown",failed to form polykaryons
same,"cell-to-cell fusion (luciferase activity, RLU)","[1]; target human CF treated with 1 μM, effector CHO-K1 cells expressing gB, gD, gH-gL, 1:1",impaired cell-to-cell fusion
same,"HSV-1 viral entry (β-galactosidase activity, OD 410)",[2]; CHO-K1 cells expressing 3-OST-3 pre-incubated 90 min,significantly blocked viral emry in a dose-dependent manner
same,"HSV-1 viral entry (β-galactosidase activity, OD 410)",[2]; CHO-K1 cells expressing HVEM pre-incubated 90 min,significantly blocked viral emry in a dose-dependent manner
same,"HSV-1 viral entry (β-galactosidase activity, OD 410)",[2]; CHO-K1 cells expressing nectin-1 pre-incubated 90 min,significantly blocked viral emry in a dose-dependent manner
same,concentrations at which entry blocking activity was pronounced,[2]; gD-receptor expressing CHO-K1 cells,micromolar concentrations
same,"HSV-1 infection (β-gal activity, OD 410)",[3]; 293T cells,blocked
same,"HSV-1 infection (β-gal activity, OD 410)",[3]; HeLa cells,blocked
same,"HSV-1 infection (β-gal activity, OD 410)",[3]; Vero cells,blocked
